These results are taken from PMC10404244.

The target in experiment [1] is detyrosinated microtubules: porcine brain tubulin treated with carboxypeptidase A (CPA) (porcine) (UniProt P02550). The experiment is described as follows: TIRF microscopy microtubule-binding assay (mean fluorescence intensity); tyrosinated and detyrosinated microtubules held in the same chamber, 2 mM ADP (Fig. 4C: 50 nM motor, 10 min), HP assay buffer pH 7.0.
Experiment [2] concerns the target tyrosinated microtubules polymerized from purified porcine brain tubulin (porcine) (UniProt P02550). Described as above.
In experiment [3] the target is detyrosinated microtubules: porcine brain tubulin treated with carboxypeptidase A (CPA) (porcine) (UniProt P02550). The experiment is described as follows: TIRF microscopy microtubule-binding assay (titration of fluorescence intensity); apparent; motor titrated 0.1–50 nM on held tyrosinated and detyrosinated microtubules, ADP; n = 160 MTs, N = 2.
Experiment [4] addresses tyrosinated microtubules polymerized from purified porcine brain tubulin (porcine) (UniProt P02550). The description is as above.
For experiment [5] the target is unchanged. The experiment is described as follows: single-molecule TIRF microscopy (landing rate, processive motility); tyrosinated and detyrosinated microtubules held by biotin-streptavidin in the same chamber, motors at single-molecule concentrations, 2 mM ATP, HP assay buffer pH 7.0.
For experiment [6] the target is unchanged. Put plainly: single-molecule TIRF microscopy (landing rate, dwell time); tyrosinated and detyrosinated microtubules held in the chamber, single molecules of motors, 2 mM ADP, HP assay buffer pH 7.0.
Experiment [7] has the same target. Put plainly: TIRF microscopy microtubule-binding assay (mean fluorescence intensity); tyrosinated and detyrosinated microtubules held in the same chamber, 2 mM AMP-PNP, HP assay buffer pH 7.0.

Sequence of human KIF13B CAP-Gly fragment (a.a. 1685–1826), N-terminal sfGFP-StrepII (Q9NQT8 1685-1826): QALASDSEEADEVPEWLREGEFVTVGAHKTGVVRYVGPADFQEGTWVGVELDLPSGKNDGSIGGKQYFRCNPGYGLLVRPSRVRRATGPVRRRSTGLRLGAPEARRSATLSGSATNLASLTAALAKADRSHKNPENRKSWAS

“full-length human KIF13B K414A, C-terminal sfGFP-StrepII (from UniProt Q9NQT8 1-1826) (natural protein)” yielded a fold motor density on microtubules over KIF13B (50 nM, ADP) in experiment [1] of 11 fold. In experiment [2], this substance yielded a fold binding (fluorescence intensity), tyrosinated over detyrosinated microtubules, ADP of 2 fold and a fold motor density on microtubules over KIF13B (50 nM, ADP) of 3 fold. Besides, the Kd in experiment [3] came to 72.7 nM. For the same substance, the Kd in experiment [4] was found to be 23.7 nM. Moreover, the fold landing rate, tyrosinated over detyrosinated microtubules (ATP) in experiment [5] came out at 2 fold. In experiment [6], this substance yielded a fold dwell time, tyrosinated over detyrosinated microtubules (ADP) of 1.5 fold and a fold landing rate, tyrosinated over detyrosinated microtubules (ADP) of 2 fold.
In experiment [6], “human KIF13B CAP-Gly fragment (a.a. 1685–1826), N-terminal sfGFP-StrepII (from UniProt Q9NQT8 1685-1826) (domain or fragment)” came in with a fold landing rate, tyrosinated over detyrosinated microtubules (ADP) of 14 fold and a fold lower dwell time than full-length KIF13B or KIF13B^Δtail (tyrosinated microtubules, ADP) of 2 to 3 fold.
Turning to “full-length human KIF13B V178Q, C-terminal sfGFP-StrepII (from UniProt Q9NQT8 1-1826) (natural protein)”, in experiment [5], the fold landing rate, tyrosinated over detyrosinated microtubules (ATP) was 2 fold.
For the substance “full-length human KIF13B (wild type), C-terminal sfGFP-StrepII (from UniProt Q9NQT8 1-1826) (natural protein)”, in experiment [7], the fold binding (fluorescence intensity), tyrosinated over detyrosinated microtubules, AMP-PNP is 1.4 fold. In experiment [2], this substance came in with a fold binding (fluorescence intensity), tyrosinated over detyrosinated microtubules, ADP of 8 fold. Further, the fold landing rate, tyrosinated over detyrosinated microtubules (ATP) in experiment [5] stood at 2 fold. In experiment [6], the fold dwell time, tyrosinated over detyrosinated microtubules (ADP) turned out to be 1.3 fold and the fold landing rate, tyrosinated over detyrosinated microtubules (ADP) was 2 fold.
